Non-standard residues stand in square brackets, D forms with d. *: point of attachment. Imidazole4carbonyl = O=C(c1cnc[nH]1)*; tBuAla = CC(C)(C)C[C@H](N)C(=O)O; αMeF = C[C@](N)(Cc1ccccc1)C(=O)O; 4Pal = N[C@@H](Cc1ccncc1)C(=O)O; dHyp = O=C(O)[C@H]1C[C@H](O)CN1; Cha = N[C@@H](CC1CCCCC1)C(=O)O; Isonicotinoyl = O=C(c1ccncc1)*; Iva = CC[C@](C)(N)C(=O)O; Nle = CCCC[C@H](N)C(=O)O; Aib = CC(C)(N)C(=O)O
How the values were obtained:
human Y2 receptor [1] = target: T1, human Y2 receptor (Homo sapiens, UniProt P49146); experiment: Receptor Binding Assay (RBA) for Human Y2, [125I]-PYY displacement on hY2R/CHO membrane fraction; settings: IC50 of test compound/IC50 of PYY(3-36) (PYY(3-36) taken as 1)
T1 construct: expressed in transfected cells; membrane fraction
T1 sequence (P49146 1-381): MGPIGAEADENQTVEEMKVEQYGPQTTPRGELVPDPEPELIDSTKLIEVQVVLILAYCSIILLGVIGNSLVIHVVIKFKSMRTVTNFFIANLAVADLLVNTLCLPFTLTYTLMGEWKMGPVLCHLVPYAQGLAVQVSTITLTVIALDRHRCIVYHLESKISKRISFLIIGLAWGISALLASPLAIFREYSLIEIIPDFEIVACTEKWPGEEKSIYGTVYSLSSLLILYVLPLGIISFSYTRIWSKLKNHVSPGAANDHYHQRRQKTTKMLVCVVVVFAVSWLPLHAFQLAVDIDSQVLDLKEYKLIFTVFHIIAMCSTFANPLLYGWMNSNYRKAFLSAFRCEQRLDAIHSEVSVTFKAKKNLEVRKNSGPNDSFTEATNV
How it was run: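 hY2R stably expressed in CHO/dhfr− cells; membrane fraction prepared from cells disrupted in 10 mM NaHCO3, 5 mM EDTA buffer with protease inhibitors. Binding read as displacement of [125I]-PYY.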

human Y2 receptor [2] = target: T1, human Y2 receptor; experiment: Human Y2 Receptor G Protein Binding Assay (GBA), [35S]GTPγS; format: biochemical; settings: EC50 of test compound/EC50 of PYY(3-36) (PYY3-36 taken as 1), hY2R/CHO membrane fraction
How it was run: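 Agonism measured as [35S]GTPγS binding, read by GF/C filtration and scintillation counting after 120 min at room temperature, using human Y2 membranes at 1 μg protein/mL in pH 7.4 Tris/MgCl2/NaCl/GDP buffer. Compound serially diluted 100 μM–1 nM; EC50 normalized to PYY(3-36) (ratio = compound/PYY).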

male C57EL/6J mice = experiment: 3-Days Continuous Subcutaneous Administration Test-1 (food intake suppressing activity); format: in vivo, mouse; settings: 0.03 mg/kg/day, subcutaneous Alzet pump, food consumption over 3 days; relative to food intake suppression rate for PYY(3-36) (1 mg/kg/day) taken as 100%
Experimental: (4) Test Method: 3-Days Continuous Subcutaneous Administration Test-1
The food intake suppressing activity of the compound of the present invention was examined by the method described below.
The test compound was dissolved in 50% DMSO so that sustained release would occur at 0.03 mg/kg/day, and the solution was filled in the Alzet Pump (Alzet model: 1003D, sustained release rate: 1 μL/hr, capacity: 100 μL). After the filling, the pump was placed in a 2 mL Eppendorf tube containing 330 μL of physiological saline, and incubated at 37° C. for 2 hours or more. Thereafter, this pump was subcutaneously embedded in the back of each mouse by the method described below. After weighing, each male […] mice at 12-13 weeks of age (25° C., allowed to take food and water ad libitum; 12-hour bright-12-hour dark cycle, lighting turned on at 08:00) was anesthetized with diethyl ether; the skin in the upper back thereof was incised, and the above-mentioned pump was embedded subcutaneously. Thereafter, several drops of penicillin solution (100000 units/mL) were added to the incised part, and the incision was sutured using Michel's surgical needle. This mouse was returned to the rearing cage (reared alone), and given previously weighed food; 3 days later, the amount of remaining food was measured. Food consumption was calculated by subtracting the amount of remaining food after 3 days from the weight of the food given on the day of pump embedding. The food intake suppressing activity of each test compound was expressed as a food intake suppression rate (%) relative to the food intake suppression rate for PYY(3-36) (1 mg/kg/day) taken as 100%.

Row | Substance | RBA IC50 Ratio (human Y2 receptor [1]) | GBA EC50 Ratio (human Y2 receptor [2]) | food intake suppression rate (%) (male C57EL/6J mice)
1 | 4-Imidazolecarbonyl-[D-Hyp24, Iva25, Pya(4)26, Cha27,36, Aib28,31, Lys30]-PYY(23-36) (Imidazole4carbonyl-S[dHyp][Iva][4Pal][Cha][Aib]NK[Aib]TRQR[Cha]-NH2; SMILES CC[C@](C)(NC(=O)[C@H]1C[C@H](O)CN1C(=O)[C@H](CO)NC(=O)c1cnc[nH]1)C(=O)N[C@@H](Cc1ccncc1)C(=O)N[C@@H](CC1CCCCC1)C(=O)NC(C)(C)C(=O)N[C@@H](CC(N)=O)C(=O)N[C@@H](CCCCN)C(=O)NC(C)(C)C(=O)N[C@H](C(=O)N[C@@H](CCCNC(=N)N)C(=O)N[C@@H](CCC(N)=O)C(=O)N[C@@H](CCCNC(=N)N)C(=O)N[C@@H](CC1CCCCC1)C(N)=O)[C@@H](C)O) [compound No. 299] | 1.3 | 0.92 | 46
2 | 4-Imidazolecarbonyl-[D-Hyp24, Iva25, Pya(4)26, Cha27,36, Leu(Me)28, Lys30, Aib31]-PYY(23-36) (Imidazole4carbonyl-S[dHyp][Iva][4Pal][Cha][tBuAla]NK[Aib]TRQR[Cha]-NH2; ends and bridges not checked) [compound No. 336] | 0.75 | 1.4 | 52
3 | 4-Imidazolecarbonyl-[D-Hyp24, Iva25, Pya(4)26, Cha27,36, αMePhe28, Lys30, Aib31]-PYY(23-36) (Imidazole4carbonyl-S[dHyp][Iva][4Pal][Cha][αMeF]NK[Aib]TRQR[Cha]-NH2; SMILES CC[C@](C)(NC(=O)[C@H]1C[C@H](O)CN1C(=O)[C@H](CO)NC(=O)c1cnc[nH]1)C(=O)N[C@@H](Cc1ccncc1)C(=O)N[C@@H](CC1CCCCC1)C(=O)N[C@@](C)(Cc1ccccc1)C(=O)N[C@@H](CC(N)=O)C(=O)N[C@@H](CCCCN)C(=O)NC(C)(C)C(=O)N[C@H](C(=O)N[C@@H](CCCNC(=N)N)C(=O)N[C@@H](CCC(N)=O)C(=O)N[C@@H](CCCNC(=N)N)C(=O)N[C@@H](CC1CCCCC1)C(N)=O)[C@@H](C)O) [compound No. 343] | 0.65 | 1.0 | 15
4 | 4-Imidazolecarbonyl-[D-Pro24, Iva25, Pya(4)26, Cha27,30,36, Aib28,31]-PYY(23-36) (Imidazole4carbonyl-S[dP][Iva][4Pal][Cha][Aib]N[Cha][Aib]TRQR[Cha]-NH2; SMILES CC[C@](C)(NC(=O)[C@H]1CCCN1C(=O)[C@H](CO)NC(=O)c1cnc[nH]1)C(=O)N[C@@H](Cc1ccncc1)C(=O)N[C@@H](CC1CCCCC1)C(=O)NC(C)(C)C(=O)N[C@@H](CC(N)=O)C(=O)N[C@@H](CC1CCCCC1)C(=O)NC(C)(C)C(=O)N[C@H](C(=O)N[C@@H](CCCNC(=N)N)C(=O)N[C@@H](CCC(N)=O)C(=O)N[C@@H](CCCNC(=N)N)C(=O)N[C@@H](CC1CCCCC1)C(N)=O)[C@@H](C)O) [compound No. 318] | 2.3 | 1.9 | 18
5 | 4-Imidazolecarbonyl-[D-Pro24, Iva25, Pya(4)26, Cha27,36, Aib28,31, Lys30]-PYY(23-36) (Imidazole4carbonyl-S[dP][Iva][4Pal][Cha][Aib]NK[Aib]TRQR[Cha]-NH2; SMILES CC[C@](C)(NC(=O)[C@H]1CCCN1C(=O)[C@H](CO)NC(=O)c1cnc[nH]1)C(=O)N[C@@H](Cc1ccncc1)C(=O)N[C@@H](CC1CCCCC1)C(=O)NC(C)(C)C(=O)N[C@@H](CC(N)=O)C(=O)N[C@@H](CCCCN)C(=O)NC(C)(C)C(=O)N[C@H](C(=O)N[C@@H](CCCNC(=N)N)C(=O)N[C@@H](CCC(N)=O)C(=O)N[C@@H](CCCNC(=N)N)C(=O)N[C@@H](CC1CCCCC1)C(N)=O)[C@@H](C)O) [compound No. 300] | 0.77 | 0.91 | 35
6 | 4-Imidazolecarbonyl-[D-Pro24, Nle25, Pya(4)26, Cha27,36, Aib28,31, Lys30]-PYY(23-36) (Imidazole4carbonyl-S[dP][Nle][4Pal][Cha][Aib]NK[Aib]TRQR[Cha]-NH2; SMILES CCCC[C@H](NC(=O)[C@H]1CCCN1C(=O)[C@H](CO)NC(=O)c1cnc[nH]1)C(=O)N[C@@H](Cc1ccncc1)C(=O)N[C@@H](CC1CCCCC1)C(=O)NC(C)(C)C(=O)N[C@@H](CC(N)=O)C(=O)N[C@@H](CCCCN)C(=O)NC(C)(C)C(=O)N[C@H](C(=O)N[C@@H](CCCNC(=N)N)C(=O)N[C@@H](CCC(N)=O)C(=O)N[C@@H](CCCNC(=N)N)C(=O)N[C@@H](CC1CCCCC1)C(N)=O)[C@@H](C)O) [compound No. 302] | 1.7 | 1.2 | 22
7 | 4-Imidazolecarbonyl-[D-Pro24, Pya(4)26, Cha27,36, Aib28,31, Lys30]-PYY(23-36) (Imidazole4carbonyl-S[dP]R[4Pal][Cha][Aib]NK[Aib]TRQR[Cha]-NH2; SMILES C[C@@H](O)[C@H](NC(=O)C(C)(C)NC(=O)[C@H](CCCCN)NC(=O)[C@H](CC(N)=O)NC(=O)C(C)(C)NC(=O)[C@H](CC1CCCCC1)NC(=O)[C@H](Cc1ccncc1)NC(=O)[C@H](CCCNC(=N)N)NC(=O)[C@H]1CCCN1C(=O)[C@H](CO)NC(=O)c1cnc[nH]1)C(=O)N[C@@H](CCCNC(=N)N)C(=O)N[C@@H](CCC(N)=O)C(=O)N[C@@H](CCCNC(=N)N)C(=O)N[C@@H](CC1CCCCC1)C(N)=O) [compound No. 213] | 0.76 | 1.1 | 33
8 | 4-Imidazolecarbonyl-[Glu23, D-Pro24, Pya(4)26, Cha27,36, Aib28,31, Lys30]-PYY(23-36) (Imidazole4carbonyl-E[dP]R[4Pal][Cha][Aib]NK[Aib]TRQR[Cha]-NH2; SMILES C[C@@H](O)[C@H](NC(=O)C(C)(C)NC(=O)[C@H](CCCCN)NC(=O)[C@H](CC(N)=O)NC(=O)C(C)(C)NC(=O)[C@H](CC1CCCCC1)NC(=O)[C@H](Cc1ccncc1)NC(=O)[C@H](CCCNC(=N)N)NC(=O)[C@H]1CCCN1C(=O)[C@H](CCC(=O)O)NC(=O)c1cnc[nH]1)C(=O)N[C@@H](CCCNC(=N)N)C(=O)N[C@@H](CCC(N)=O)C(=O)N[C@@H](CCCNC(=N)N)C(=O)N[C@@H](CC1CCCCC1)C(N)=O) [compound No. 216] | 1.3 | 1.3 | 36
9 | 4-Pyridinecarbonyl-[D-Hyp24, Iva25,28, Pya(4)26, Cha27,36, Lys30, Aib31]-PYY (23-36) (Isonicotinoyl-S[dHyp][Iva][4Pal][Cha][Iva]NK[Aib]TRQR[Cha]-NH2; SMILES CC[C@](C)(NC(=O)[C@H](CC1CCCCC1)NC(=O)[C@H](Cc1ccncc1)NC(=O)[C@](C)(CC)NC(=O)[C@H]1C[C@H](O)CN1C(=O)[C@H](CO)NC(=O)c1ccncc1)C(=O)N[C@@H](CC(N)=O)C(=O)N[C@@H](CCCCN)C(=O)NC(C)(C)C(=O)N[C@H](C(=O)N[C@@H](CCCNC(=N)N)C(=O)N[C@@H](CCC(N)=O)C(=O)N[C@@H](CCCNC(=N)N)C(=O)N[C@@H](CC1CCCCC1)C(N)=O)[C@@H](C)O) [compound No. 334] | 1.3 | 1.6 | 14

— US9260500B2, “Peptide and use thereof” (Takeda Pharmaceutical Company Limited, priority 2009, dated 2016)
